Measured values published in patent publication US20100041597A1 (published 2010).
Where two headings read alike, the source gives them in different places. One block for each binder: values may come before it.

Assays:
[1] = target: T1, PKC-ε (endogenous, human cell extracts) (human, UniProt Q02156 1-737); experiment: Western-blot competition on cell extracts against the anti-PKC-ε primary antibody; band densitometry
T1 construct: Two bands on the blot, said to be alternate splicing variants; also called PKC-epsilon; PKC-ε Band 1
T1 sequence (looked up): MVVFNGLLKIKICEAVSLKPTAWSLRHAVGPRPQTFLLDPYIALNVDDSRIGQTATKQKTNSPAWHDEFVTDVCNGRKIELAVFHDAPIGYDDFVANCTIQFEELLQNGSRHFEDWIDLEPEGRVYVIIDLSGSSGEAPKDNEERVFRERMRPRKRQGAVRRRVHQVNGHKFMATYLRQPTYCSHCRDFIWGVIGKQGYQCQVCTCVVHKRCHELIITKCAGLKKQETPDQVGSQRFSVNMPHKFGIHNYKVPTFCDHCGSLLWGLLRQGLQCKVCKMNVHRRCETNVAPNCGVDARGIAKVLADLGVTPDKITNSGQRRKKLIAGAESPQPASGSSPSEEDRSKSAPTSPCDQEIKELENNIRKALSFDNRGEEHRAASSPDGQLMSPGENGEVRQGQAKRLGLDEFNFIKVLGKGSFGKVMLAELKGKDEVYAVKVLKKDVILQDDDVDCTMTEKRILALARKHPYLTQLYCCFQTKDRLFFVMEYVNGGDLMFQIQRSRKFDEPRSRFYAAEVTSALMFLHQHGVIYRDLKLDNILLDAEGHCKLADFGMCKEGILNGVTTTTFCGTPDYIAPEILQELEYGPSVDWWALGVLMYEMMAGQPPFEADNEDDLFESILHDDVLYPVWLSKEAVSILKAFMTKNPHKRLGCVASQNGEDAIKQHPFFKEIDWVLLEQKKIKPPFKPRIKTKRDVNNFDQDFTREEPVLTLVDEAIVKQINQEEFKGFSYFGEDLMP

[2] = target: T2, PKC-ι (endogenous, human cell extracts) (human, UniProt P41743 2-596); experiment: Western-blot competition on cell extracts against the anti-PKC-ι primary antibody; band densitometry
T2 construct: also called PKC-iota
T2 sequence (looked up): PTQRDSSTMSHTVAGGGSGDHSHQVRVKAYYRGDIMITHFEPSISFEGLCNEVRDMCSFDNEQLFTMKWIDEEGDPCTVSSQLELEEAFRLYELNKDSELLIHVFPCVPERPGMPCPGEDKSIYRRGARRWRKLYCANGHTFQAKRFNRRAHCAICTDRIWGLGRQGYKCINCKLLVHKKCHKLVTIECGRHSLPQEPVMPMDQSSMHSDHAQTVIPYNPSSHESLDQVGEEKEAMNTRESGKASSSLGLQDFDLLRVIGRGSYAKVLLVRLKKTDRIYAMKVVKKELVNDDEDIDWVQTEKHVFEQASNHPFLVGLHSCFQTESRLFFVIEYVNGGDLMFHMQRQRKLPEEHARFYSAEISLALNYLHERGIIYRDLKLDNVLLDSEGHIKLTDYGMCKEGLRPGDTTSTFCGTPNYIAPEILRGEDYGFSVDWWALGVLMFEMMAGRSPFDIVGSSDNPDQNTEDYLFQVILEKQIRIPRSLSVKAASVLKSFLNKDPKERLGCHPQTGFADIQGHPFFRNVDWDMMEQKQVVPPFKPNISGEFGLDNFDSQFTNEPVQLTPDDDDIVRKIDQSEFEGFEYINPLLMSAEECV

[3] = target: T1, PKC-ε (endogenous, human cell extracts); experiment: Western-blot competition on cell extracts against the anti-PKC-ε primary antibody; band densitometry; remark: listed apart in the source
Experimental: Binding efficiency and specificity of the peptides PRE 2, 3, 4, 5, 6, 7, 8, 9, 10, 11, 12 and 13 (see Table 3) was also tested using cytoplasmic extracts from different cell lines expressing appropriate PKC isoforms as described for Example 1. Briefly, the protein cytoplasmic extracts were separated by electrophoresis and transferred onto nitrocellulose membranes by standard Western blotting procedures. The bands on the Western blots were detected with matching primary antibodies and alkaline phosphatase conjugated secondary antibody. The bands were then scanned and the relative density measurements obtained.
This procedure to assess the binding characteristics of the PREs is based on competition binding of the PRE with the primary anti-isoform PKC specific antibodies. The lower the measured band density, the greater the binding of the PRE to the PKC isoform. The PREs were added at 10 and 20 times (10×, 20×) the primary antibody concentration, according to classical competition between antigenic peptide and primary antibody. The following cell lines (obtained from the ATCC) were used: H661—NCI human lung carcinoma NSCLC; MDAMB231—human highly invasive breast cancer cell line from pleural effusion; LS180—human colon adenocarcinoma; LnCAP—human prostate adenocarcinoma; CCD16Lu—human lung fibroblasts; Du145—human prostate carcinoma brain metastasis, and T24—human bladder carcinoma.

PKC-ζ (purified isoform) = target: T3, PKC-ζ (purified isoform) (Homo sapiens (Human), UniProt Q05513 1-592); experiment: competitive binding assay on purified isoforms: PRE 4 at 20X against the fluorescent anti-PKC-zeta antibody
T3 construct: also called PKC-zeta; PKCzeta
T3 sequence: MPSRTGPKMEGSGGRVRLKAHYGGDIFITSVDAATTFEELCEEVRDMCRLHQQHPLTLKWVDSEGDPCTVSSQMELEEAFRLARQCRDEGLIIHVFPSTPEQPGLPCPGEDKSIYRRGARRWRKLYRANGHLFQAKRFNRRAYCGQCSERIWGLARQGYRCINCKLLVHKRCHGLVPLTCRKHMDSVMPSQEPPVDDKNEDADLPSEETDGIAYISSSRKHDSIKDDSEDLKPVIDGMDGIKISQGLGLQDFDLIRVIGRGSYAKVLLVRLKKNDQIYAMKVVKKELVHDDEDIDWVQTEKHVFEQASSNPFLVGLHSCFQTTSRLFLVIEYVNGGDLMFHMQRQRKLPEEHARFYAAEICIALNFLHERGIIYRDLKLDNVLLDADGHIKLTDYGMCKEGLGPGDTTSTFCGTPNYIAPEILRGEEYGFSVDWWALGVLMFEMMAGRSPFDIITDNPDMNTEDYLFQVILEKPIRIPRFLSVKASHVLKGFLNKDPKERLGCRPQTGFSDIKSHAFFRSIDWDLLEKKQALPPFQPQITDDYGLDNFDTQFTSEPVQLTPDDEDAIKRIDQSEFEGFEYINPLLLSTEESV

B1: PRE 12 (peptide)
peptide: Ac-KDAQNLI-NH2
notes: Synthetic peptide; also called peptide PRE 12; Ac-KDAQNLI-NH2
- binding result [1]: no binding (tested: 20X the primary antibody concentration)
- binding result [2]: no binding (tested: 20X the primary antibody concentration)

B2: PRE 13 (peptide)
peptide: Ac-RDAQNLI-NH2
notes: Synthetic peptide; also called peptide PRE 13; Ac-RDAQNLI-NH2
- binding result [3]: no binding (tested: 20X the primary antibody concentration)

- binding result (PKC-ζ (purified isoform)): no binding (tested: 20X)
B3: PRE 4 (peptide)
peptide: Ac-KDAQNLIGISI-NH2
notes: Synthetic peptide; also called peptide PRE 4
